# Data from the RNAGym collection of RNA variant scans (doi:10.1073/pnas.2313332121).
# B1: TPR t1 (parent)
# chain: GACCAAUCUGCCCUCAGAGCUCGAGAACAUCUUCGGAUGCAGAGGAGGCAGGCUUCGGUGGCGCGAUAGCGCCAACGUCCUCAACCUCCAAUGCAUCCCACCACAUGAUGAUGCCUGAAGAGCCUUGGUUUUUUG
# Variants of: B1
# Assay: polymerase ribozyme fitness, log enrichment relative to wild type (log ratio); higher = more active; in vitro selection for triplet polymerase activity
# In short: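 Frozen incubation at −7 °C formed the core of a single, triplicate in vitro selection round applied to PCR-built, transcribed mutant libraries of each subunit of a heterodimeric triplet polymerase ribozyme. Extended constructs were gel-excised, captured with streptavidin beads and amplified by RT-PCR, and input and output libraries were Illumina-sequenced with a filter of ≥10 input reads and ≥1 read per output. Fitness is the logarithm of genotype enrichment relative to wild-type enrichment, with inverse-variance-weighted replicate averaging, and the logarithm is base 2.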
row,Variant,polymerase ribozyme fitness (log ratio)
1,GACCAAUCUAACCGCAGAGCUCGAGAACAUCUUCGGAUGCAGAGGAGGCAGGCCUUGGUGGCGCGAUAGCGCCAACGUCCACAACCUCCAAUGCAUCCCACCACAUGAUGAUGCCUGAAGAGCCUUGGUUUUUUG [G10A C11A U14G U54C C56U U81A],-2.09
2,GACCAAUCGGCCCUCAGAGCUCGAGAACAUCUUCGGAUGCAGAGGAGGCAGGCUUCUGUGGCGCGAUAGCGCCAACGUCCUCAACCUCCAAUGCAUCCCACCACAUGAUGAUGCCUGAAGAGCCUUGGUUUUUUG [U9G G57U],-0.376
3,GACCAAUCUACCCUCAGAGCUCGAGAACAUCUUCGGAUGCAGUGGAGGCAGGCUUCUGUGGCGCGAUAGCGCCAACGUCCUCAACCUCCAAUGCAUCCCACCACAUGAUGAUGCCUGAAGAGCCUUGGUCUUUUG [G10A A43U G57U U130C],-1.83
4,GACCAAUCUACCCUCAGAGCUCGAGAACAUCUUCGGAUGCAGAGGAGGCAGGCUUCGGUGGCGCGAUAGCGCCAACGUCCUCAUCCUCCAAUGCAUCCCACCACAUGAUUAUGCCUGAAGAGCCUUGGUUUUUUG [G10A A84U G110U],-1.93
5,GACCAAUCUACCCUCAGAGCUCGAGAGCAUCUUCGGAUGCAGAGGAGGCAGGCUUCGGUGGCGCGAUAGCACCAACGUCCUCAACUUCCAAUGCAUCCCACCACAUGAUGAUGCCUGAAGAGCCUUGGUUUUUUG [G10A A27G G71A C86U],-3.87
6,GACCAAUCGGCCCUCAGAGCUCGAGAACAUCUUCGGAUGCAGAGGAGGCAGUCUUCGGUGGCGCGAUAGGGCCAACGUCCUCAACCUCCAAUGCAUCCCACCACAUGAUGAUGCCUGAAGAACCUUGGUUUUUUG [U9G G52U C70G G122A],-4.3
7,GACCAAUCUACCCUCAGAGCUCGAGAACAUCUUCGGAUGCAGAGGAGGCAGGCUUCGGUGGCGCGAUAGCGCCAACGUCCUCAACCUCCAAUGCAUCCCACCACAUGAUGAUGCCUGAAGAGCCUUGGUUUUUUG [G10A],0.148
8,GACCAAUCGGCCCACAGAGCUCGAGAACAUUUUCGGAUGCAGAGGAGGCAGGCUUCGGUGGCGCGAUAUCGCCAACGUCCUCAACCUCCAAUGCAUCCCACCACAUGAUGAUGCCUAAAGAGCCUUCGUUUUUUG [U9G U14A C31U G69U G117A G127C],-4.64
9,GACCAAUCGGCCCUCAGAGCUCGAGAACAUCUUCGGAUGCAGAGGAGGCAGGCUUCGGUAGCGCGAUAGCGCCAACGUCCUCAACCUCCCAUGCAUCCCACCACAUGAUGAUGCCUGAAGAGCCUUGGUUUUUUG [U9G G60A A90C],-0.347
10,GACCAAUCGGCCCUCAGAGCUCGAGAACAUCUUCGGAUGCAGAGGAGGCAGGCUUCGGUGGCGCGAUAGCGCCAACGUCCUCAACCUCCAAGGCAUCCCACCACAUGAUGAUGCCUGAAGAGCCUUGGUUUUUUG [U9G U92G],-1.92
11,GACCAAUCUACCCUCAGAGCUCGAGAACGUCUUCGGAUGCAGAGGAGGCAGGCUUCGGUGGUGCGAUAGCGCCAACGUCCUCAACCUCCAAUGCAUCCCACCACAUGAUGAUACCUGAAGAGCCUUGGUAUUUUG [G10A A29G C62U G113A U130A],-3.56
12,GACCAAUCUACCCUCCGAGCUCGAGAACAUCUUCGGAUGCAGAGGAGGCGGGCUUCGGUGGCGCGAUAGCGCCAACGUCCUCAACCUCCAAUGCAUCCCAACACAUGAUGAUGCCUGAAGAGCCUUGGUUUUUUG [G10A A16C A50G C101A],-2.99
13,GACCAAUCUAACCUCAGCGCUCGAGAACAUCUUCGGAUGCACAAGAGGCAGGCUUCGGUAGCGCGAUAGCGCCAACGUCCUCAACCUCCAAUGCAUCCCAACACAUGAUGAUGCCUGAAGAGCCUUGGUUUUUUG [G10A C11A A18C G42C G44A G60A C101A],-4.31
14,GACCAAUCGGCCCUCAGAGCUCGAGAACAUCUUCGGAAGCAGAGGACGAAGGCUUCGGUGGCGCGAUAGCGCCAACGUCCUCAACCUCCAAUGCAUCCCACCACAUGAUGAUGCCUGAAGAGCCUUGGUUUUUUG [U9G U38A G47C C49A],-3.06
15,GACCAAUCUACCCUCAGAGCUCGAGAACAUCUUCGGGUGCAGAGGAUGCAGGCUUCGGAGGCGCGAUAGCGCCAACGUCCUCAACCUCCAAUGCAUCCCACCACAUGAUGAUGCCUUAAGAUCCGUGGUUUUUUG [G10A A37G G47U U59A G117U G122U U125G],-5.7
16,GACCAAUCUACUCUCAGAGCUCGAGAACAUCUUCGUAUGCAGAGGAGGCAGGAUUCGGUGGCGCGAUAGCGCCAACGUCCUCAACCUCCAAUGCAUCCCACCACAUGAUGAUGCCUGAAGAGCCUUGGUUUUUUG [G10A C12U G36U C53A],-0.13
17,GACCAAUCUACCCUCAGAGCUCGAGAACAUCUUCGGAUGCAGAGGAGGCAGGCUUCGGUGGCGCGAUGGCGCCAACGUCCUCAACCUCCAAUGCAUCCCACCACAUGAUGACGCCUGAAGAGCCUUGGUUUUUUG [G10A A68G U112C],-1.25
18,GACCAAUCGGCCCUCAGAGCUCGAGAACAUCUUCGGAUGCAGAGGAGGCAGGCUUCGGUGGCGCGAUAGCGCCAACGCCCUCAACCUCUAAUGCAUCCCACCACAUGAUGAUGCCUGAAGAGCCUUGGUUUUUUG [U9G U78C C89U],-0.533
19,GACCAAUCGGCCCUCAGAGCUCGAGAACAUCUUCGGAUGCAGAGGAGGCAGGCUUCGGUGGCGCCAUACCGCCAACGUCCUCAACCUCCAAUGCAUCCCACCACAUGAUGAUGCCUGAAGAGCCUUGGUUUUUUG [U9G G65C G69C],-5.37
20,GACCAAUCGGCCCUCAGAGCUCGAGAACAUCUUCGGAUGCAGAGGAGGCAGGCUUCUGUGGCGCGAUAGCGCCAACGUCCUCAACCUCCAAUGCAACCCACCACAUGAUGAAGCCUGAAGAGCCUUGGUUUUUUG [U9G G57U U96A U112A],0.146
21,GACCAAUCUACCCUCAGAGCUCGAGAACAUCUUCGGUUGCAGAGGACGCAGGCUUCGGUGGCGCGAUAGCGCCAACGUCCUCAACCUCCAAUGCAUCCCACCACAUGAUGACGCCUGAAGAGCCUUGGUUAUUUG [G10A A37U G47C U112C U131A],-0.391
